Data from PMC4421749.

Molecular target: microtubules assembled from bovine brain tubulin (bovine) (UniProt Q6B856)
Assay: co-sedimentation; 0.5 μM 4R-tau with increasing taxol-stabilized microtubules, 30 min at RT, BRB80-K (BRB80 + 50 mM KCl); 230,000 x g 15 min; tau in the pellet by densitometry of Coomassie gels; hyperbolic fit; apparent Kd

Kd: 280 nM
Substance: 4R-tau (1N4R-tau), recombinant human tau containing four microtubule-binding sites (from UniProt P10636-7 1-412) (natural protein)
